Tested on: Escherichia coli TOP10
Assay: shrunken log2 fold change of peptide-encoding DNA abundance (4.5 h post-induction vs induction); higher = less antimicrobial activity (less host growth inhibition)
Settings: time post-induction: 4.5 h; library: site-saturation at positions 5, 18, 19, 20
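Further: peptides expressed intracellularly from a pBAD plasmid library in pooled LB shake-flask culture, induced with 0.3% L-arabinose, DNA abundance read by NGS, three biological replicates, DESeq2 with apeglm shrinkage.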

| Sequence | shrunken log2 fold change |
| --- | --- |
| RRIRLRPPRLPRPRPRPPVRPRP | 0.426 |
| RRIRERPPRLPRPRPRPFYMPRP | -0.167 |
| RRIRCRPPRLPRPRPRPDYVPRP | -1.26 |
| RRIRDRPPRLPRPRPRPPLEPRP | 0.699 |
| RRIRRRPPRLPRPRPRPMGFPRP | 0.317 |
| RRIRQRPPRLPRPRPRPREKPRP | 0.158 |
| RRIRTRPPRLPRPRPRPRTKPRP | 0.74 |
| RRIRLRPPRLPRPRPRPRCMPRP | -0.0665 |
| RRIRNRPPRLPRPRPRPPLIPRP | -0.193 |
| RRIRVRPPRLPRPRPRPTGFPRP | 0.0174 |
| RRIRWRPPRLPRPRPRPCMGPRP | -0.0956 |
| RRIRLRPPRLPRPRPRPWMIPRP | -0.0928 |
| RRIRARPPRLPRPRPRPDDSPRP | 0.124 |
| RRIRSRPPRLPRPRPRPCQRPRP | -0.0305 |
| RRIRGRPPRLPRPRPRPKSAPRP | 0.781 |
| RRIRVRPPRLPRPRPRPHFTPRP | -0.253 |
| RRIRGRPPRLPRPRPRPARDPRP | 0.585 |
| RRIRHRPPRLPRPRPRPSWRPRP | -0.0493 |
| RRIRERPPRLPRPRPRPIPQPRP | 0.13 |
| RRIRVRPPRLPRPRPRPFPSPRP | -0.127 |
| RRIRERPPRLPRPRPRPMQIPRP | -0.0552 |
| RRIRQRPPRLPRPRPRPMRIPRP | -0.0249 |
| RRIRKRPPRLPRPRPRPTVEPRP | 0.377 |
| RRIRPRPPRLPRPRPRPHVNPRP | -0.38 |
| RRIRCRPPRLPRPRPRPHRSPRP | -0.114 |

| Sequence | shrunken log2 fold change |
| --- | --- |
| RRIRSRPPRLPRPRPRPYECPRP | -0.356 |
| RRIRCRPPRLPRPRPRPGFLPRP | -0.245 |
| RRIRKRPPRLPRPRPRPHDGPRP | 0.0431 |
| RRIRGRPPRLPRPRPRPWICPRP | -0.00439 |
| RRIRIRPPRLPRPRPRPIIYPRP | -0.396 |
| RRIRTRPPRLPRPRPRPYLEPRP | -0.573 |
| RRIRERPPRLPRPRPRPMTWPRP | 0.0575 |
| RRIRKRPPRLPRPRPRPTAYPRP | 0.185 |
| RRIRCRPPRLPRPRPRPEEAPRP | 0.642 |
| RRIRFRPPRLPRPRPRPWVNPRP | -0.753 |
| RRIRARPPRLPRPRPRPARCPRP | 0.331 |
| RRIRLRPPRLPRPRPRPDRVPRP | -0.0538 |
| RRIRNRPPRLPRPRPRPYCMPRP | -0.776 |
| RRIRTRPPRLPRPRPRPRRMPRP | 0.15 |
| RRIRERPPRLPRPRPRPHWGPRP | 0.0212 |
| RRIRYRPPRLPRPRPRPYTSPRP | -0.533 |
| RRIRVRPPRLPRPRPRPVLQPRP | 0.164 |
| RRIRTRPPRLPRPRPRPHHQPRP | -0.272 |
| RRIRYRPPRLPRPRPRPRTFPRP | -0.757 |
| RRIRHRPPRLPRPRPRPLDYPRP | -0.0824 |
| RRIRLRPPRLPRPRPRPLDMPRP | -0.358 |
| RRIRDRPPRLPRPRPRPAYKPRP | -0.456 |
| RRIRKRPPRLPRPRPRPWSDPRP | -0.0989 |
| RRIRHRPPRLPRPRPRPQCPPRP | -0.211 |
| RRIRSRPPRLPRPRPRPFFFPRP | 0.168 |

| Sequence | shrunken log2 fold change |
| --- | --- |
| RRIRLRPPRLPRPRPRPMNIPRP | -0.504 |
| RRIRSRPPRLPRPRPRPSMLPRP | -0.3 |
| RRIRWRPPRLPRPRPRPNGEPRP | -0.0407 |
| RRIRVRPPRLPRPRPRPLNMPRP | -1.14 |
| RRIRMRPPRLPRPRPRPGAKPRP | 1.48 |
| RRIRARPPRLPRPRPRPYSMPRP | -0.484 |
| RRIRHRPPRLPRPRPRPGPDPRP | -0.227 |
| RRIRWRPPRLPRPRPRPASGPRP | 0.461 |
| RRIRDRPPRLPRPRPRPCPPPRP | -0.249 |
| RRIRIRPPRLPRPRPRPVRSPRP | 0.373 |
| RRIRGRPPRLPRPRPRPTDQPRP | 0.846 |
| RRIRNRPPRLPRPRPRPNRCPRP | -0.0238 |
| RRIRRRPPRLPRPRPRPPMIPRP | 0.0196 |
| RRIRLRPPRLPRPRPRPQDFPRP | 0.0788 |
| RRIRCRPPRLPRPRPRPWPCPRP | 1.63 |
| RRIRSRPPRLPRPRPRPDGRPRP | 0.0253 |
| RRIRIRPPRLPRPRPRPPNHPRP | -0.475 |
| RRIRDRPPRLPRPRPRPEEIPRP | -0.0062 |
| RRIRSRPPRLPRPRPRPDRMPRP | -0.129 |
| RRIRKRPPRLPRPRPRPSGYPRP | -0.0136 |
| RRIRHRPPRLPRPRPRPRHQPRP | 0.0252 |
| RRIRLRPPRLPRPRPRPTMRPRP | 0.836 |
| RRIRQRPPRLPRPRPRPANSPRP | -0.0568 |
| RRIRVRPPRLPRPRPRPWMIPRP | -0.0467 |
| RRIRSRPPRLPRPRPRPYPNPRP | 0.00334 |

| Sequence | shrunken log2 fold change |
| --- | --- |
| RRIRRRPPRLPRPRPRPYDKPRP | -0.213 |
| RRIRLRPPRLPRPRPRPHSNPRP | -0.443 |
| RRIRERPPRLPRPRPRPAFHPRP | -0.154 |
| RRIRIRPPRLPRPRPRPLSPPRP | 1.35 |
| RRIRHRPPRLPRPRPRPVNSPRP | 0.158 |
| RRIRMRPPRLPRPRPRPCFGPRP | -0.23 |
| RRIRIRPPRLPRPRPRPDWEPRP | -0.0114 |
| RRIRCRPPRLPRPRPRPREKPRP | 1.12 |
| RRIRWRPPRLPRPRPRPLPSPRP | 0.515 |
| RRIRLRPPRLPRPRPRPQKFPRP | 0.0452 |
| RRIRTRPPRLPRPRPRPHQNPRP | -0.253 |
| RRIRCRPPRLPRPRPRPVHMPRP | 0.0385 |
| RRIRLRPPRLPRPRPRPKVYPRP | -0.0494 |
| RRIRFRPPRLPRPRPRPHYYPRP | -0.524 |
| RRIRIRPPRLPRPRPRPPFLPRP | -0.0978 |
| RRIRPRPPRLPRPRPRPRRPPRP | 0.489 |
| RRIRYRPPRLPRPRPRPQSDPRP | -0.251 |
| RRIRNRPPRLPRPRPRPEFLPRP | 0.00817 |
| RRIRLRPPRLPRPRPRPKANPRP | 0.0584 |
| RRIRWRPPRLPRPRPRPAAWPRP | 0.121 |
| RRIRHRPPRLPRPRPRPNNTPRP | -0.931 |
| RRIRKRPPRLPRPRPRPVFLPRP | -0.0387 |
| RRIRPRPPRLPRPRPRPMAGPRP | -0.13 |
| RRIRHRPPRLPRPRPRPSWSPRP | -0.235 |
| RRIRPRPPRLPRPRPRPYVDPRP | -0.117 |

| Sequence | shrunken log2 fold change |
| --- | --- |
| RRIRRRPPRLPRPRPRPQMCPRP | 0.0865 |
| RRIRPRPPRLPRPRPRPKLAPRP | 0.405 |
| RRIRARPPRLPRPRPRPEGGPRP | 0.872 |
| RRIRMRPPRLPRPRPRPPTGPRP | 0.858 |
| RRIRSRPPRLPRPRPRPGVKPRP | 0.235 |
| RRIRRRPPRLPRPRPRPIKTPRP | 0.00866 |
| RRIRSRPPRLPRPRPRPRLWPRP | 0.397 |
| RRIRPRPPRLPRPRPRPMYKPRP | -0.323 |
| RRIRDRPPRLPRPRPRPVDAPRP | -0.0229 |
| RRIRRRPPRLPRPRPRPRDQPRP | 0.341 |
| RRIRFRPPRLPRPRPRPTRTPRP | 0.326 |
| RRIRVRPPRLPRPRPRPWIGPRP | -0.166 |
| RRIRMRPPRLPRPRPRPDCNPRP | 2.08 |
| RRIRVRPPRLPRPRPRPLCTPRP | -0.0347 |
| RRIRNRPPRLPRPRPRPDCVPRP | -0.106 |
| RRIRKRPPRLPRPRPRPRRGPRP | 0.799 |
| RRIRGRPPRLPRPRPRPQAAPRP | 1.22 |
| RRIRERPPRLPRPRPRPNETPRP | -0.0321 |
| RRIRHRPPRLPRPRPRPHAFPRP | -0.0301 |
| RRIRYRPPRLPRPRPRPMHQPRP | -0.0734 |
| RRIRLRPPRLPRPRPRPNSAPRP | 0.0654 |
| RRIRRRPPRLPRPRPRPCWNPRP | -0.00252 |
| RRIRERPPRLPRPRPRPKIRPRP | -0.121 |
| RRIRMRPPRLPRPRPRPQRSPRP | 0.629 |
| RRIRDRPPRLPRPRPRPLFFPRP | 0.648 |

— the supplement of paper PMC9112550, “Optimization of the antimicrobial peptide Bac7 by deep mutational scanning” (BMC Biology, 2022)
